Measurements taken from US20260103686A1, “MICROBIAL STRAIN, PROTEIN, AND METHOD FOR PRODUCING GALLIC ACID USING MICROBIAL STRAIN OR PROTEIN” (UNIVERSITY OF TSUKUBA, priority 2022, published 2026).

B1: PaPobA: Pseudomonas aeruginosa-derived PobA (SEQ ID NO: 28), known enzyme with high PCA-hydroxylating activity (protein, listed as Pseudomonas aeruginosa)
chain: MKTQVAIIGAGPSGLLLGQLLHKAGIDNVILERQTPDYVLGRIRAGVLEQGMVDLLREAGVDRRMARDGLVHEGVEIAFAGQRRRIDLKRLSGGKTVTVYGQTEVTRDLMEAREACGATTVYQAAEVRLHDLQGERPYVTFERDGERLRLDCDYIAGCDGFHGISRQSIPAERLKVFERVYPFGWLGLLADTPPVSHELIYANHPRGFALCSQRSATRSRYYVQVPLSEKVEDWSDERFWTELKARLPSEVAEKLVTGPSLEKSIAPLRSFVVEPMQHGRLFLAGDAAHIVPPTGAKGLNLAASDVSTLYRLLLKAYREGRGELLERYSAICLRRIWKAERFSWWMTSVLHRFPDTDAFSQRIQQTELEYYLGSEAGLATIAENYVGLPYEEIE
B2: HyPobA: Hydrogenophaga sp.-derived PobA, protocatechuic acid 5-hydroxylase (SEQ ID NO: 21) (protein, listed as Hydrogenophaga sp.)
chain: MRTQVGIIGAGPAGLMLAHMLHLEGIESVIIERSKREHVQNRLRAGVLEQGTVEMMRELGLGERIGQLGLEQHRIDFRFGGESHPIDFHEATGGRSAWVYPQHEVVKDLMAARTAAGAQMLFETPVTAIEGIDGTRPVVRFEKDGVAGELHCDFVVGCDGFRGISRRAIPAREGQVHDRIYPFGWLGILAEAPPATNEVTWGCHEDGFAMMSIRTPSVTRLYLQCEPDENPDHWSDDRIWSALHKRLDVPGLPPINEGRITQKGVTAMRSFLFEPMQHGRLFLAGDAAHIVPPTGAKGLNSAMADVKVLARALEQHYQRGSQDLLARYSKTCLKRMWLVQRFSAGLCTMVHSFAGDSSFVRRLQRADLDYMTGTTAGRLQFSENFTGLPID
B3: HgPobA: Hylemonella gracilis-derived PobA, protocatechuic acid 5-hydroxylase (SEQ ID NO: 20) (protein, listed as Hylemonella gracilis)
chain: MSYPTRTQVAIIGAGPSGLMLGALLHKAGIDTVVLERQSGDYVLGRIRAGVLEQVTMDLMDEIGVGARMHQEGLVHGGFDMLFQGQRHRIDMNRLTGGQNVMVYGQTEVTRDLMDARQQAGLTTIYEAANVAIHDFGSGKPRVTYEKDGKTHELQCDFIAGCDGFHGVCRDTVKKSASASAIREYEKVYNFGWLGLLSDTPPVHHELIYVNSERGFALCSQRSATRSRYYLQVPLTDKVEQWSDQAFWDELKLRLDPQAREHLVTGPSIEKSIAPLRSFVTEPLRFGRLFLAGDAGHIVPPAGAKGLNLAATDVKYLSAALTEFYQGKSEAGINHYSERCLKRIWRAERFSWWFTSLMHRFPENGEIGQKLQEAELDYIVHSETGARSVAENFVGLPLDFGA
B4: HgPobA-TY: mutant protein of HgPobA with two mutations T302A and Y393F (protein, listed as Hylemonella gracilis)
chain: B3 chain
B5: PoPobA: Polaromonas sp.-derived PobA, protocatechuic acid 5-hydroxylase (SEQ ID NO: 22) (protein, listed as Polaromonas sp.)
chain: MRTQVGIVGAGPAGLMLSHMLHLEGIESVIIERASREHVQSRLRAGVLEHGTVDMLRELGLGERIGKIGLEQHAIDFRFGGESHRLDFHQATNGRSAWVYPQHELVTDLMNARMQAGAEILFETPVTRIDGLHTSKPTVHFEQGGEPRELVCDFVVGCDGFRGVCRDAIPDTVLKTYDRVYPFGWLGILAEAPAPTREITWGCHEEGFAMLSIRSPSVTRLYLQCEPDDDPDHWSDDHIWAELHKRLDVPGMPPVNEGKIMQKGVTAMRSFLAEPMQYGKLFLAGDAAHIVPPTGAKGLNSAMADVKVLGRGLAEKYRRGADHLLERYSQICLKRMWLVQRFSAGLCTMVHQFPGDNAFVRRLQRADLDYMTGTAAGRLAFSENFTGLPIE

Experiments:
[1] = Analysis of gallic acid-producing activities of purified enzymes (HPLC); assay type: biochemical; settings: 2 mM PCA, 0.5 mM NADPH, 10 μg enzyme, 30° C., 30 minutes, pH 7.9
Description: Using the purified enzyme liquids of HyPobA, PoPobA, HgPobA-TY and PaPobA described above, the gallic acid-producing activities were analyzed.
By adding 10 μM FAD, 0.5 mM NADPH, 2 mM PCA and 10 μg of the respective purified enzyme liquids to 20 mM Tris-HCl buffer (pH 7.9), 100 μL of reaction liquids were prepared.

[2] = Reaction kinetic analysis of purified enzymes, substrate PCA (NADPH absorbance at 340 nm); assay type: biochemical; settings: relative to PaPobA
Description: Using the purified enzyme liquids of HgPobA, HgPobA-TY, PoPobA, HyPobA and PaPobA described above, a reaction kinetic analysis was conducted.

Row | Molecule | relative activity of producing gallic acid from PCA (PaPobA regarded as 1) [1] | kcat value for PCA compared with that of PaPobA [2] | Km value for PCA compared with that of PaPobA [2]
1 | B1 | 1 times |  | 
2 | B2 | 20 times | higher kcat values than that of PaPobA | 
3 | B3 |  | higher kcat values than that of PaPobA | 
4 | B4 | eight |  | one third or less
5 | B5 | 20 times | higher kcat values than that of PaPobA | 
